Measurements reported in IntAct's records for PubMed 12670962.

B1: Cell division inhibitor SulA (Escherichia coli (strain K12)), P0AFZ5 (parent)
chain: MYTSGYAHRSSSFSSAASKIARVSTENTTAGLISEVVYREDQPMMTQLLLLPLLQQLGQQSRWQLWLTPQQKLSREWVQASGLPLTKVMQISQLSPCHTVESMVRALRTGNYSVVIGWLADDLTEEEHAELVDAANEGNAMGFIMRPVSASSHATRQLSGLKIHSNLYH

Variants of: B1
Settings: with hslu_ecoli hslU

| Variant | effect of a mutation on the interaction |
| --- | --- |
| MYTSGYAHRSSSFSSAASKIARVSTENTTAGLISEVVYREDQPMMTQLLLLPLLQQFGQQSRWQLWLTPQQKLSREWVQASGLPLTKVMQISQLSPCHTVESMVRALRTGNYSVVIGWLADDLTEEEHAELVDAANEGNAMGFIMRPVSASSHATRQLSGLKIHSNLYH | disrupting interaction |
| MYTSGYAHRSSSFSSAASKIARVSTENTTAGLISEVVYREDQPMMTQLLLLPLLQQLGQQSRWQLWLTPQQKLSREWVQASGLPLTKVIQISQLSPCHTVESMVRALRTGNYSVVIGWLADDLTEEEHAELVDAANEGNAMGFIMRPVSASSHATRQLSGLKIHSNLYH | increasing interaction |
